Assay results reported in the nanobody polyreactivity screen of Harvey et al. (2022).

Assay: yeast display, Sf9 membrane polyspecificity reagent, FACS + sequencing; frameworks hold sequencing errors
Method in brief: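 After 36–48 hours of galactose induction, yeast (Saccharomyces cerevisiae BJ5465) displaying a synthetic nanobody library were stained at 4 °C for 1 hour with 10% biotinylated, detergent-solubilized Sf9 membrane reagent. Streptavidin microbeads enriched the stained cells before FACS sorting into low and high (top ~1%) gates on anti-HA and streptavidin fluorescence. Each clone's polyreactivity label reflects its gate of origin.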

Sequence: QVQLVESGGGLVQAGGSLRLSCAASGNTFQYYALGWYRQAPGKERELVAAITTGGSKNFADSVKGRFTISRDNAKNTVYLQMNSLKPEDTAVYYCAARGGVSKRISDYWGQGTQVTVSS
- polyreactivity (PSR sort gate): low polyreactivity

Sequence: QVQLVESGGGLVQAGGSLRLSCAASGNTFRDYAMGWYRQAPGKERELVAAITSSGARTYYADSVKGRFTISRDNAKNTVYLQMNSLKPEDTAVYYCAADWSGYYTYDYWGQGTQVTVSS
- polyreactivity (PSR sort gate): low polyreactivity

Sequence: QVQLVESGGGLVQAGGSLRLSCAASGNTFRGYAMGWSRQAPGKEMELVAAITSGGRTYYADSVKGRFTISRDNAKNTVYLQMNSLKPEDTAVYYCNARQFAGDEWGQGTLVTVSS
- polyreactivity (PSR sort gate): high polyreactivity

Sequence: QVQLVESGGGLVQAGGSLRLSCAASGNTFRSYVMGWYRQAPGKERELVADISSGDGTNYADSVKGRFTISRDNAKNTVYLQMNSLKPEDTAVYYCAKDVYNFRTTHSYFTGYDSWGQGTQVTVSS
- polyreactivity (PSR sort gate): low polyreactivity

Sequence: QVQLVESGGGLVQAGGSLRLSCAASGNTFRYYAMGWYRQAPGKERELVATITSGGRTYYADSVKGRFTISRDNAKNTVYLQMNSLKPEDTAVYYCAAVGLDYFVGEYDYWGQGTQLTVSS
- polyreactivity (PSR sort gate): low polyreactivity

Sequence: QVQLVESGGGLVQAGGSLRLSCAASGNTFSAYAMGWYRQAPGKERELVAAISSRGGSTYYADSVKGRFTISRDNAKNTVYLQMNSLKPEDTAVYYCAAGWFGTSYRYRSSFDYWGQGTQVTVSS
- polyreactivity (PSR sort gate): high polyreactivity

Sequence: QVQLVESGGGLVQAGGSLRLSCAASGNTFSDYSMGWYRQAPGNERELVAAITISGGSTYYADSVKGRFTISRDNAKNTVYLQMNSLKPEDTAVYYCAADVWYILYDYWGQGTQVTVSS
- polyreactivity (PSR sort gate): low polyreactivity

Sequence: QVQLVESGGGLVQAGGSLRLSCAASGNTFSGNAMGWYRQAPGKERELVAAISGSGASTYYADSVKGRFTISRDNAKNTVYLQMNSLKPEDTAVYYCAADKPGIFSRFDYWGQGTQVTVSS
- polyreactivity (PSR sort gate): low polyreactivity

Sequence: QVQLVESGGGLVQAGGSLRLSCAASGNTFSLYAMGWYRQAPGKERELVAAITWITGSTDYADSVKGRFTISRDNAKNTVYLQMNSLKPEDTAVYYCAADGDFSWFYSYETGWIEYDYWGQGTQVTVSS
- polyreactivity (PSR sort gate): low polyreactivity

Sequence: QVQLVESGGGLVQAGGSLRLSCAASGNTFSSNAMGWYRQAPGKERELVAGITKSGGRTYYADSVKGRFTISRDNAKNTVYLQMNSLKPEDTAVYYCNRRAGPYSIPYYYWGQGTQVTVSS
- polyreactivity (PSR sort gate): high polyreactivity

Sequence: QVQLVESGGGLVQAGGSLRLSCAASGNTFSTYGMGWYRQAPGKERELVAGITSDGRTNYADSVKGRFTISRDNAKNTVYLQMNSMKPEVTAVYYCAAEWASRFAVFWAYPKYDYWGQGTQVTVSS
- polyreactivity (PSR sort gate): low polyreactivity

Sequence: QVQLVESGGGLVQAGGSLRLSCAASGNTFSWYAMGWYRQAPWKERELVAVITSGGSTNYADSVKGRFTISRDNAKNTVYLQMNSLKTEDTAVYYFAADSYGGSKYDYWGQGTQVTVSS
- polyreactivity (PSR sort gate): low polyreactivity

Sequence: QVQLVESGGGLVQAGGSLRLSCAASGNTFTGYAMGWYREAPGKERELVAAITRSGRTYYADSVKGRFTISRDNAKNTVYLQMTSLKPEDTAVYYCAADRRYVKYYYSGQGTQVTVSS
- polyreactivity (PSR sort gate): high polyreactivity

Sequence: QVQLVESGGGLVQAGGSLRLSCAASGNTFTWYTMGWYRQAPGKERELVAVITSDGSTYYADSVKGRFTISRDNAKNTVYLQMNSLKPEDTAVYYCNALSADWYPEEDYWGQGTQVTVSS
- polyreactivity (PSR sort gate): low polyreactivity

Sequence: QVQLVESGGGLVQAGGSLRLSCAASGNTFVKYVIGWYRQAPGKEREYVAAITVRGNTYYADSVKGRFTISRDNAKNTVYLQMNSLKPEDTAVYYCAARIYYLYKDRRLGYYWGQGTQVTVSS
- polyreactivity (PSR sort gate): high polyreactivity

Sequence: QVQLVESGGGLVQAGGSLRLSCAASGNTFVYYAMGWYRQAPGKERELVAGISRRSGSTYYADSVKGRFTISRDNAKNTVYLQMNSLKPEDTAVYYCAKGRTYLDADDYWGQGTQVTVSS
- polyreactivity (PSR sort gate): low polyreactivity

Sequence: QVQLVESGGGLVQAGGSLRLSCAASGNTFVYYNMGWYRQAPGKERELVAAINWSGGSTYYADSVKGRFTISRDNAKNTVYLQMNSLKPEDTAVYYCAADTSYYPYEYWGQGTQVTVSS
- polyreactivity (PSR sort gate): high polyreactivity

Sequence: QVQLVESGGGLVQAGGSLRLSCAASGNTFWRYAMGWYRQAPGKERELVAAITYTSGSTYYADSVKGRFTISRDNAKNTVYLQMNSLKPEDTAVYYCAAESVYGSGYVFRYYYWGQGTQVSVSS
- polyreactivity (PSR sort gate): high polyreactivity

Sequence: QVQLVESGGGLVQAGGSLRLSCAASGNTFYDYGMGWYRQAPGKERELVAGIDGSSTYYADSVKGRFTISRDNAKNTVYLQMNSLKPEDTAVYYCAAYVGSYVSYRAYPRIYYYWGQGTQVTLSS
- polyreactivity (PSR sort gate): low polyreactivity

Sequence: QVQLVESGGGLVQAGGSLRLSCAASGNTFYGYAIGWYRQAPGKERELVASITLSGDSTYYADSVKGRFTISRDNAKNTVYLQMNSLKPEDTAVYYCAGVYTYPLGYYHYTYDYWGQGTQVTVSS
- polyreactivity (PSR sort gate): low polyreactivity

Sequence: QVQLVESGGGLVQAGGSLRLSCAASGNTFYGYAMGWYRQAPGKERDLVATITGSGGDTYYADSVKGRFTISRDNAKNTVYLKMNSLKPEDTAVYYCNAVEYYGGYPGTQYYYLAYNYWGQGTQVTVSS
- polyreactivity (PSR sort gate): low polyreactivity
